One substance from publication PMC12576456 can be followed below.

In assay [1] the target is YFT1-C^S927A/S1118A (cYFP fusion) (tomato (Solanum lycopersicum)). The assay is described as follows: split reporter (BiFC, NanoBiT); BiFC: nYFP-SlTFT1 with YFT1-C derivatives fused to cYFP, transiently co-transformed into N. benthamiana leaves via Agrobacterium; YFP by confocal microscopy, intensity by ImageJ.
The target in assay [2] is YFT1-C^S927D/S1118D (cYFP fusion) (tomato (Solanum lycopersicum)). The description is as above.

Consider nYFP-SlTFT1 (natural protein), for which the values for the BiFC YFP fluorescence, percent of YFT1-C in assay [1] and in assay [2] were 67% and 114%, respectively.
